This note sets out measurements from patent US20260028402A1 (published 2026).

For one assay, the target named is T1, MusCD100-His (mouse, UniProt O09126 24-733).
T1 chain: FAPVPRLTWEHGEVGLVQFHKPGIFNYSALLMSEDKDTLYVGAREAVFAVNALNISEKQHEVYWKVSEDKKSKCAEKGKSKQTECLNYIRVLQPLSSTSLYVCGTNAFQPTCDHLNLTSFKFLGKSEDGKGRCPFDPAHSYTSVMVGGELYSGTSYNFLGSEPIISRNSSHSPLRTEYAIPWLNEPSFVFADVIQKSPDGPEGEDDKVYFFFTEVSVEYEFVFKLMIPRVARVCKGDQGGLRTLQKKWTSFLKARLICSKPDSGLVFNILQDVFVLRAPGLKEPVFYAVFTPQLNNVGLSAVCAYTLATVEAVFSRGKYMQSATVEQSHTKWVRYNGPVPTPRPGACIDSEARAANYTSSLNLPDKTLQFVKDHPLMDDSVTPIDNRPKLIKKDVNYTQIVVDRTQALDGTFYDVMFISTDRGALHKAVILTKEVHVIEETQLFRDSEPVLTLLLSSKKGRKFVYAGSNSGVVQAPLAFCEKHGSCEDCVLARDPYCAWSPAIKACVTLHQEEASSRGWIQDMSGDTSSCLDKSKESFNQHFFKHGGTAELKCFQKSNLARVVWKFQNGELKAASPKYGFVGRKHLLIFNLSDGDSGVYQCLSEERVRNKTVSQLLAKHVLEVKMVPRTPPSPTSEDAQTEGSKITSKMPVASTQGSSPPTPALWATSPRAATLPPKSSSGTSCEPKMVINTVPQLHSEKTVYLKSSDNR
The assay is described as follows: ELISA. On the technique in general: ELISA stands for enzyme-linked immunosorbent assay.

For assay [1], the target named is T2, HuCD100-His (human, UniProt Q92854 22-734). Kind of assay: ELISA.
Assay [2] addresses Human Semaphorin 4D/SEMA4D/CD100 Protein, Fc Tag (Acro, CD0-H5257) (human, UniProt Q92854 22-734). Kind of assay: ELISA; last HuCD100-Fc row.
The target in assay [3] is T2, HuCD100-His. The assay is described as follows: ELISA; FIG. 5D.
For assay [4], the target named is T3, HuCD100-Fc (in-house prepared) (human, UniProt Q92854 22-734, biotinylated in the Plexin binding and blocking assays (sites not given)). Kind of assay: ELISA; first HuCD100-Fc row.
Another assay has as its target CynoCD100-His (cynomolgus monkey). Kind of assay: ELISA.
The target in a further assay is CynoCD100-Fc (cynomolgus monkey). Kind of assay: ELISA.
The target in assay [5] is T3, HuCD100-Fc (in-house prepared). The assay is described as follows: FACS blocking; HuPlexin-B2-HEK293, FIG. 12D.

What is called EC50 is the concentration that produces a half-maximal response. A high value points to weaker potency. One may read the IC50 as the midpoint of a concentration-inhibition curve.

B1: Pepinemab (antibody, V domains shown)
VH: QVQLVQSGAEVKKPGSSVKVSCKASGYSFSDYYMHWVRQAPGQGLEWMGQINPTTGGASYNQKFKGKATITVDKSTSTAYMELSSLRSEDTAVYYCARYYYGRHFDVWGQGTTVTVSS
VL: DIVMTQSPDSLAVSLGERATINCKASQSVDYDGDSYMNWYQQKPGQPPKLLIYAASNLESGVPDRFSGSGSGTDFTLTISSLQAEDVAVYYCQQSNEDPYTFGQGTKLEIK
As to B1, the EC50 in the assay with MusCD100-His was found to be 0.0908 nM; in the assay with HuCD100-His [1] it was 0.122 nM; in assay [2], 0.0659 µg/mL; in the assay with HuCD100-His [3], 0.0376 nM; in assay [4] it was 0.0469 µg/mL; with CynoCD100-His, 0.128 µg/mL. In the assay with CynoCD100-Fc, a half-maximal response (EC50) required 0.388 µg/mL. Besides, the IC50 in assay [5] worked out at 2.06 nM.
